B1: H8S, Q5NV88 (parent)
chain: NFMLTQPHSVSESPGKTVTISCTRSSGSIASNYVQWYQQRPGSSPTTVIYEDNQRPSGVPDRFSGSIDSSSNSASLTISGLKTEDEADYYCQSYDSSN

Variants of: B1
Conditions: Homo sapiens, pH 7.5, Fluorescence, Sodium phosphate 20mM, transition: 2, structure 2W0K, whole UniProt chain shown

Row | Variant | ddG of mutation (higher = less stable) (25 °C, GdnHCl) [kcal/mol] | denaturant midpoint (higher = more stable) (25 °C, GdnHCl) [M] | unfolding free energy (25 °C, GdnHCl) [kcal/mol] | Tm (Thermal) [°C] | change of melting temperature, mutant - wild type (higher = more stable) (Thermal) [°C] | ddG of mutation (higher = less stable) (Thermal) [kcal/mol] | unfolding enthalpy (calorimetric) (Thermal) [kcal/mol] | unfolding free energy (Thermal) [kcal/mol]
1 | H8S | 0.6 | 1.28 | 4.5 | 49.5 | -0.4 | 0.2 | 84.4 | 5
2 | H8P |  |  |  | 50.1 | 0.2 | 0.8 | 84.8 | 4.4
3 | P7S H8S |  |  |  | 43.7 | -6.2 | 1.4 | 79.4 | 3.8
4 | P7S | 2.6 | 0.84 | 2.5 | 43 | -6.9 | 1.5 | 79.5 | 3.7

— FireProtDB (doi:10.1016/j.jmb.2009.11.038)
